Reference: publication PMC12575849

Assays:
[1] = biological target: unmodified nucleosome (recombinant human histone octamer on Widom 601 DNA) (human) (UniProt P04908); assay: native gel or EMSA; purified CHD1 titrated against 5 nM IR dye-conjugated nucleosome in EMSA buffer (10 mM HEPES pH 8.0, 75 mM NaCl, 5 mM MgCl2, 10% glycerol, 1 mM DTT, 0.1 mg/ml BSA), 30 min at 30 °C, native PAGE; shifted fraction fitted to a dose-response curve
CHD1 WT (human) = assay: EMSA; conditions: 5 mM Mg2+, no ATP listed; 10 mM HEPES pH 8.0, 75 mM NaCl, 5 mM MgCl2, 10% glycerol, 1 mM DTT, 0.1 mg/ml BSA; 5 nM nucleosome; 30 min at 30 C; native PAGE
CHD1 deltaNC (human) = assay: EMSA; conditions: 5 mM Mg2+, no ATP listed; 10 mM HEPES pH 8.0, 75 mM NaCl, 5 mM MgCl2, 10% glycerol, 1 mM DTT, 0.1 mg/ml BSA; 5 nM nucleosome; 30 min at 30 C; native PAGE

Sequence of recombinant CHD1^WT protein (O14646 whole entry): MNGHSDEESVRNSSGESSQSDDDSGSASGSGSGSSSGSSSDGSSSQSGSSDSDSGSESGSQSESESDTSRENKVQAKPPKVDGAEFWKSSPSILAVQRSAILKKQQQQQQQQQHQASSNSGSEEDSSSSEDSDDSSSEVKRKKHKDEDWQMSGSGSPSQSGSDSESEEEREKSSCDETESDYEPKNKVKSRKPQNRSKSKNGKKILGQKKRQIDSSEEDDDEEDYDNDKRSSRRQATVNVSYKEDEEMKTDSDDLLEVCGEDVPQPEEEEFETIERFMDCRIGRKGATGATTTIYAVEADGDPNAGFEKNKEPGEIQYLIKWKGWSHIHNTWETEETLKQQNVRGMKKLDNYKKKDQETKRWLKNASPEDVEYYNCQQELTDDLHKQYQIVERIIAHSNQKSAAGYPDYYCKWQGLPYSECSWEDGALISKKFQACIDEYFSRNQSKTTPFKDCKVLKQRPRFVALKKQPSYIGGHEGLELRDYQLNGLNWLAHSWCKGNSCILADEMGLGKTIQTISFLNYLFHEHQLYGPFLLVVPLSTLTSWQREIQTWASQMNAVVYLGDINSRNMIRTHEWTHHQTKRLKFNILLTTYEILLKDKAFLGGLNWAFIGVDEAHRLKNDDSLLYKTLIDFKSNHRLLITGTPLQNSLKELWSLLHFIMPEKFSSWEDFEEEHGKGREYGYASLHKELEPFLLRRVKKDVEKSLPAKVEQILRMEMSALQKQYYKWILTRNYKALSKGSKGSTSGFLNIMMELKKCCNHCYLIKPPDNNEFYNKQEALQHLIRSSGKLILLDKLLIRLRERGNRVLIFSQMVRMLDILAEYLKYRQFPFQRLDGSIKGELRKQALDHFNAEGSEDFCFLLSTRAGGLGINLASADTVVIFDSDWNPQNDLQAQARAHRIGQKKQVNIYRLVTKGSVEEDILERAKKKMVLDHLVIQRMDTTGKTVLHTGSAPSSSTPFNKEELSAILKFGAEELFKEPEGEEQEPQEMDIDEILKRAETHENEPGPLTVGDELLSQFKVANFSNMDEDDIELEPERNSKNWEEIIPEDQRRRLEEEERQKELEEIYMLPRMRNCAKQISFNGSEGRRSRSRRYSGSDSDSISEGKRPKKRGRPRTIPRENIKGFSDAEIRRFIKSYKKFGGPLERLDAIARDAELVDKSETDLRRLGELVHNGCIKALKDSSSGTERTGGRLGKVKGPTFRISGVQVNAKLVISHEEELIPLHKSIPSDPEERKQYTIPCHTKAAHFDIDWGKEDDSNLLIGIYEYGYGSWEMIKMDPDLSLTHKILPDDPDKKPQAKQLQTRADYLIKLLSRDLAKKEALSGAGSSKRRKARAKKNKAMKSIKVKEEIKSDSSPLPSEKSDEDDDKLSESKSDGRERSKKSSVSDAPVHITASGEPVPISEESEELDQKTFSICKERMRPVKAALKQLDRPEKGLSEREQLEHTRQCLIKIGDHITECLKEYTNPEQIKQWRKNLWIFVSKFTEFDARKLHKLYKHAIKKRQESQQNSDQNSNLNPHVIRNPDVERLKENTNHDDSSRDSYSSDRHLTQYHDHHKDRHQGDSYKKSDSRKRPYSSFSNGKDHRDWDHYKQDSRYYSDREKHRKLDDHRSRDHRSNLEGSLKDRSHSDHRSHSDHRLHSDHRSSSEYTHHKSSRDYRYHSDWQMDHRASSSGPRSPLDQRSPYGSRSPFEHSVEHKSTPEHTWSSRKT

Substance | Kd [1] | Kd (CHD1 WT (human)) | Kd (CHD1 deltaNC (human))
recombinant CHD1^WT protein (from UniProt O14646 1-1710) (natural protein) | 0.221 µM |  | 
Widom 601 nucleosome (unmodified) |  | 0.221 µM | 0.0063 µM
